This passage reports Kd results from US7732209.

Holding throughout (test): EMSA
(A gel shift assay detects complexes by their altered migration in electrophoresis.)

Data set [1] addresses T1, Mos-1 transposase (Tnp), rabbit reticulocyte TnT, phosphorylated (Drosophila mauritiana) (UniProt Q7JQ07).
T1 sequence: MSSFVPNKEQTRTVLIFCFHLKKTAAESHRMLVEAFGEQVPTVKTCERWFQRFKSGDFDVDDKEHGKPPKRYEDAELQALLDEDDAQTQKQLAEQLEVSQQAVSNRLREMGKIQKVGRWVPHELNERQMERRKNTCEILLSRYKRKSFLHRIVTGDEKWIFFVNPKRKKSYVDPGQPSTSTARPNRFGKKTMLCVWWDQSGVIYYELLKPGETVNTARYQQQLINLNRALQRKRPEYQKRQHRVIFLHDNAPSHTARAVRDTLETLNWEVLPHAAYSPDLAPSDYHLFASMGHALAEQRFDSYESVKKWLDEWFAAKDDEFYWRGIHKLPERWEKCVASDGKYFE
The note with it: single Kd; Scatchard; 5 mM MgCl2, 20 mM Tris pH 9, ice.

Data set [2] addresses T2, Mos-1 transposase in vitro translated, dephosphorylated with CIP (Drosophila mauritiana) (UniProt Q7JQ07).
T2 sequence: T1 sequence
The note with it: Scatchard, 5 mM MgCl2, 20 mM Tris pH 9, ice.

Data set [3] concerns the target T3, MBP-Tnp (Mos-1 transposase, phosphorylated, insect cells) (Drosophila mauritiana) (UniProt Q7JQ07).
T3 sequence: T1 sequence
The note with it: single Kd; Scatchard; 5 mM MgCl2, 20 mM Tris pH 9, ice.

In data set [4] the target is T4, MBP-Tnp dephosphorylated with CIP (Drosophila mauritiana) (UniProt Q7JQ07).
T4 sequence: T1 sequence
The following applies: Scatchard, 5 mM MgCl2, 20 mM Tris pH 9, ice.

In data set [5] the target is T5, Mos-1 mariner transposase (Tnp), produced in bacteria (Drosophila mauritiana) (UniProt Q7JQ07).
T5 sequence: T1 sequence
The note with it: CITED (publication submitted), cited from earlier work.

What is called Kd is the free concentration of one partner at which half of the binding sites on the other are occupied at equilibrium, for simple one-to-one binding.

Regarding “Mos-1 ITR 3' (EcoRI/XbaI fragment of pBS(3'))”, the dissociation constant Kd in data set [1] was 74 nM; in data set [2] (Kd1, second Kd (Kd2) 15.5 nM) it was 1.3 nM; in data set [2] (Kd2 (second site)) it was 15.5 nM; in data set [3], 39 nM; in data set [4] (Kd1, second Kd (Kd2) 24.69 nM) it was 0.66 nM; in data set [4] (Kd2 (second site)), 24.7 nM. In addition, the Kd in data set [5] (Kd1, specific ITR 3' binding, Scatchard) was 0.6 nM; in data set [5] (Kd2, ITR bound as integration target), 10 nM.
